Experimental data published in IntAct's records for PubMed 23706744.

B1: Protein arginine N-methyltransferase 1 (Saccharomyces cerevisiae), P38074 (parent)
chain: MSKTAVKDSATEKTKLSESEQHYFNSYDHYGIHEEMLQDTVRTLSYRNAIIQNKDLFKDKIVLDVGCGTGILSMFAAKHGAKHVIGVDMSSIIEMAKELVELNGFSDKITLLRGKLEDVHLPFPKVDIIISEWMGYFLLYESMMDTVLYARDHYLVEGGLIFPDKCSIHLAGLEDSQYKDEKLNYWQDVYGFDYSPFVPLVLHEPIVDTVERNNVNTTSDKLIEFDLNTVKISDLAFKSNFKLTAKRQDMINGIVTWFDIVFPAPKGKRPVEFSTGPHAPYTHWKQTIFYFPDDLDAETGDTIEGELVCSPNEKNNRDLNIKISYKFESNGIDGNSRSRKNEGSYLMH
partner: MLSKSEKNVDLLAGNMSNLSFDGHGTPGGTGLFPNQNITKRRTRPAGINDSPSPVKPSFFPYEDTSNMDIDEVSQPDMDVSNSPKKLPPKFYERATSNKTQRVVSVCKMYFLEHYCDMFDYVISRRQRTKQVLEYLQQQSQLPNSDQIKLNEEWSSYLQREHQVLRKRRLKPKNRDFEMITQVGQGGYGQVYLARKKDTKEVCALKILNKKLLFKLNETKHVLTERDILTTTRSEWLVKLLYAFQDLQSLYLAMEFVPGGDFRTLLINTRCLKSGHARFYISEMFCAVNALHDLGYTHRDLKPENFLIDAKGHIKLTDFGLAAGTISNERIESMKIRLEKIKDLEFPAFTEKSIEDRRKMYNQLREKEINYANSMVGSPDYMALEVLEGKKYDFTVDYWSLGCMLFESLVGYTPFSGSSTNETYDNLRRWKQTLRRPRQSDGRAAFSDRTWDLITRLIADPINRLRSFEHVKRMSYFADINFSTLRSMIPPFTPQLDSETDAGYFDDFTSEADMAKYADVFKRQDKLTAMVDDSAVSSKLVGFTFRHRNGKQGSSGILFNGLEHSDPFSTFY
B2: Protein arginine N-methyltransferase 1 (Saccharomyces cerevisiae), P38074 (parent)
chain: B1 chain

Variants of: B1
Details: with dbf2_yeast DBF2, P22204

effect of a mutation on the interaction | Variant
disrupting interaction strength | MSKTAVKDAATEKTKLSESEQHYFNSYDHYGIHEEMLQDTVRTLSYRNAIIQNKDLFKDKIVLDVGCGTGILSMFAAKHGAKHVIGVDMSSIIEMAKELVELNGFSDKITLLRGKLEDVHLPFPKVDIIISEWMGYFLLYESMMDTVLYARDHYLVEGGLIFPDKCSIHLAGLEDSQYKDEKLNYWQDVYGFDYSPFVPLVLHEPIVDTVERNNVNTTSDKLIEFDLNTVKISDLAFKSNFKLTAKRQDMINGIVTWFDIVFPAPKGKRPVEFSTGPHAPYTHWKQTIFYFPDDLDAETGDTIEGELVCSPNEKNNRDLNIKISYKFESNGIDGNSRSRKNEGSYLMH [S9A]

Variants of: B2
Details: with pp2a2_yeast PPH22, P23595
Sequence of pp2a2_yeast PPH22, P23595 (P23595 whole entry): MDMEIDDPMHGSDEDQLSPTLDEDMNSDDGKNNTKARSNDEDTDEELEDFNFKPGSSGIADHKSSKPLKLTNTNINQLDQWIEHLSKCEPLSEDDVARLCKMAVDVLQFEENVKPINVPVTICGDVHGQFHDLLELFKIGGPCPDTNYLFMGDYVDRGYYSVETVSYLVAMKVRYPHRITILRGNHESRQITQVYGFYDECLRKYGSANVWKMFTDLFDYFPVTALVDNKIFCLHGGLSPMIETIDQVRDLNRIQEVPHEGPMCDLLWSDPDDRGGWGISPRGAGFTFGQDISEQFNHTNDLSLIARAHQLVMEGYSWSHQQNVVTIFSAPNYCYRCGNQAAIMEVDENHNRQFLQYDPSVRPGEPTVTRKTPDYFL

effect of a mutation on the interaction | Variant
disrupting interaction strength | MSKTAVKDAATEKTKLSESEQHYFNSYDHYGIHEEMLQDTVRTLSYRNAIIQNKDLFKDKIVLDVGCGTGILSMFAAKHGAKHVIGVDMSSIIEMAKELVELNGFSDKITLLRGKLEDVHLPFPKVDIIISEWMGYFLLYESMMDTVLYARDHYLVEGGLIFPDKCSIHLAGLEDSQYKDEKLNYWQDVYGFDYSPFVPLVLHEPIVDTVERNNVNTTSDKLIEFDLNTVKISDLAFKSNFKLTAKRQDMINGIVTWFDIVFPAPKGKRPVEFSTGPHAPYTHWKQTIFYFPDDLDAETGDTIEGELVCSPNEKNNRDLNIKISYKFESNGIDGNSRSRKNEGSYLMH [S9A]
